Test results published in patent EP3108897A1 (F. Hoffmann-La Roche AG, dated 2016).

What was measured:
[1] = target: human mutant CSF-1R L301S Y969F (full-length) (human) (UniProt P07333); test: cell-based or functional assay
[2] = target: human wildtype CSF-1R (full-length) (human, UniProt P07333 20-972); test: cell-based or functional assay

IC50 CSF-1R Phosphorylation (phospho/total CSF-1R ELISA on lysates of NIH3T3-CSF-1R cells stimulated with hu CSF-1) [2] [µg/mL] | Substance | Mutant CSF-1R IC30 (CellTiterGlo viability of NIH3T3-mutant CSF-1R spheroids, 3 days) [1] [µg/mL] | wtCSF-1R IC30 (CellTiterGlo viability of NIH3T3-wtCSF-1R spheroids, 3 days) [2] [µg/mL] | % inhibition of cell viability at 20 µg/ml (NIH3T3-mutant CSF-1R spheroids) [1] [%]
1.01 | Anti CSF-1R SC 2-4A5 (Santa Cruz Biotechnology, US) (antibody) | 2.56 | 16.6 | –
– | goat polyclonal anti-CSF-1R antibody ab10676 (abcam) | > 20 | 14.2 | 0
